Drawing on US20160368965A1 (IMMATICS BIOTECHNOLOGIES, published 2016), this text covers peptide exchange yield for one molecule.

The target of this test is T1, HLA-A*02:01 (human).
T1 construct: the tested peptide takes its place; also called peptide-receptive MHC molecules; MHC class I
The experiment in a line: UV-ligand exchange, anti-β2m ELISA; grade of peptide exchange yield. An excerpt: Candidate peptides for T cell based therapies according to the present invention were further tested for their MHC binding capacity (affinity). The individual peptide-MHC complexes were produced by UV-ligand exchange, where a UV-sensitive peptide is cleaved upon UV-irradiation, and exchanged with the peptide of interest as analyzed. Only peptide candidates that can effectively bind and stabilize the peptide-receptive MHC molecules prevent dissociation of the MHC complexes. To determine the yield of the exchange reaction, an ELISA was performed based on the detection of the light chain (β2m) of stabilized MHC complexes. The assay was performed as generally described in Rodenko et al. (Rodenko et al., 2006).
96 well MAXISorp plates (NUNC) were coated over night with 2 ug/ml streptavidin in PBS at room temperature, washed 4× and blocked for 1h at 37° C. in 2% BSA containing blocking buffer. Refolded HLA-A*02:01/MLA-001 monomers served as standards, covering the range of 15-500 ng/ml. Peptide-MHC monomers of the UV-exchange reaction were diluted 100 fold in blocking buffer. Samples were incubated for 1 h at 37° C., washed four times, incubated with 2 ug/ml HRP conjugated anti-β2m for 1h at 37° C., washed again and detected with TMB solution that is stopped with […]. Absorption was measured at 450 nm. […]
In general terms: An ELISA detects its analyte on a solid surface through an enzyme-linked reagent.

As to SLTEQVHSL [SLTEQVHSL (SEQ ID NO: 141)], the peptide exchange yield fell in the range of 50 to 75%.
